What was measured:
Type in all cases: cell-based
[1] = tested on: primary neonatal cardiomyocytes; test: In vitro reversion of cardiomyocyte hypertrophy after removal of stimulus; settings: for myocyte hypertrophy (cell area) after removal of stimulus: 2 day treatment, then 4 days serum-free media (Day 6); for cardiomyocyte cell size after 2 days of stimulation compared to control: PE 100 μM or hCT1 0.5 nM, Day 2
Description: FIGS. 2A and 2B. hCT1 induces physiologic adaptive compensation in vitro with reversion to a normal cardiomyocyte phenotype upon removal of hCT1 stimulation.
The morphological effects of CT-1 in an in vitro reversion setting (FIGS. 2A and 2B) were explored. Primary neonatal cardiomyocytes were stimulated for 2 days with phenylephrine (PE, 100 μM) or hCT1 (0.5 nM) followed by removal of the stimulus for 4 days: i.e. replenished with serum-free (SF) media. Cells were imaged at Day 0 and Day 2 of stimulation; and at Day 6 (4 days post-treatment). […] The population frequencies of L:W ratios of cardiomyocytes stimulated as above were examined (FIG. 2B). […] However, upon treatment with CT-1, only ˜20% of cardiomyocytes display a L:W ratio of 1.0 to 2.0 with the remaining cardiomyocytes showing an increased shift between 3.0 and 9.0 indicating eccentric growth. […] These observations indicate that although there is not complete penetrance of the eccentric growth (presumably due to the dosage and timing of CT-1 stimulation used), CT-1 causes an eccentric and reversible cardiomyocyte growth similar to what is seen during RV adaptive compensation, which is distinct from the concentric growth observed with PE which models pathological hypertrophic changes.

[2] = tested on: Vascular Endothelial Growth Factor—VEGF; test: VEGF expression by immunofluorescence in primary cardiomyocytes; settings: 24 hours; hCT1 0.5 nM, PE 100 μM, PAC-1 25 μM
Description: FIGS. 8A and 8B. […] FIG. 8B Microarray analysis of primary cardiomyocytes stimulated with hCT1 (0.5 nM) for 24 hours.
Applicant explored the role of CT-1 as a pro-angiogenic factor in the adaptive hypertrophic response. Physiologic cardiac adaptive compensation is associated with an increase in capillary density, whereas pathologic response is characterized by a decline or no change at all. Importantly, the compensatory vascular growth/angiogenesis that occurs during physiologic adaptive compensation is permissive for the increased workload that accompanies physiologic adaptive compensation. Despite this adaptation, little information exists regarding the mechanisms that match the demand for angiogenesis to the beneficial form of myocardial growth. The rapid in vitro and in vivo adaptive compensation in response to CT-1 supports a hypothesis that the cardiomyocyte itself may act in a paracrine fashion, to signal and promote angiogenesis. To address this conjecture, Applicant examined whether CT-1 treated primary cardiomyocytes produced vascular endothelial growth factor (VEGF), an angiogenic factor known to be produced and secreted by cardiomyocytes. Primary cardiomyocytes were incubated with control serum-free media (Ctrl, SF media) or stimulated with hCT1 (0.5 nM), PE (100 μM), or PAC-1 (25 μM) for 24 hours. Immunofluorescence was used to detect α-actinin, Vascular Endothelial Growth Factor—VEGF, and nuclei. […] Based on these observations Applicant next conducted a comparative gene expression analysis of control (non-stimulated) versus CT-1 treated (0.5 nM, 24 hours) primary cardiomyocytes, using the Affymetrix Rat gene 2.0ST array.

[3] = tested on: primary neonatal cardiomyocytes; test: Morphometric analysis of stimulated primary neonatal cardiomyocytes (cell area, length:width ratio); settings: 24 hours stimulation, PE 100 μM; for cell areas increases: versus serum-free control
Description: FIGS. 1A and 1B. Morphometric analysis of primary cardiomyocytes stimulated with human Cardiotrophin-1 (hCT1) and/or the hypertrophy agonist Phenylephrine (PE).
Phenylephrine (PE) was used as a pathological adaptive compensation control as it is a known target of the stress-activated G-protein coupled alpha (α)-adrenergic pathway. Primary neonatal cardiomyocytes were stimulated for 24 hours with hCT1 (0.5 nM), PE (100 μM), the combination of hCT1 and PE, or control serum-free (SF) media followed by morphometric analysis (cell area and length:width ratio) (FIG. 1A). […] This CT-1 mediated growth is typical of the cardiomyocyte adaptations that occur during physiologic adaptive compensation with an L:W ratio that is divergent from PE induced growth.

[4] = tested on: STAT3; test: STAT3 luciferase reporter in cardiomyocytes; settings: 30 minutes up to 24 hours; hCT1 0.5 nM, PE 100 μM, PAC-1 25 μM
Description: FIGS. 6A, 6B, and 6C. Stimulation with hCT1 causes sustained activation of NF-κB and Stat3 with limited activation of Mef2, as well as limited Nfat activation; the latter two indices are distinct expression patterns from pathologic hypertrophic stimulation. FIG. 6A Primary neonatal cardiomyocytes were transfected with luciferase reporter plasmids (NF-κB or Mef2), as indicators of hypertrophic activity. Luciferase activity was measured after treatments for 24 hrs with: hCT1 (0.5 nM), PE (100 μM), or procaspase 3 activating compound 1, PAC-1 (25 μM) (left). Treatments at early timepoints (30 min, 1 hr, and 3 hr) were also conducted for hCT1 (right). FIG. 6B Primary neonatal cardiomyocytes were transfected with a luciferase reporter plasmid for Stat3. Luciferase activity was measured after treatments for 24 hrs with: hCT1 (0.5 nM), PE (100 μM), or procaspase 3 activating compound 1, PAC-1 (25 μM) (left) and at earlier time points (right). FIG. 6C Primary neonatal cardiomyocytes were infected with a luciferase-based Nfat reporter Adenovirus (Nfat-AdV). Luciferase activity was measured after treatments for 24 hrs with: hCT1 (0.5 nM), PE (100 μM), or procaspase 3 activating compound 1, PAC-1 (25 μM) (left) and at earlier time points (right)
Moreover, it is reasonable to assume that CT-1 may moderate the activity of additional transcription factors, which further contribute to the adaptive compensation phenotype. As such, Applicants decided to test the hypothesis that STAT3 (Signal transducer and activator of transcription 3) dependent transcriptional activity is a specific determinant for CT-1 induced physiologic adaptive compensation. STAT3 phosphorylation and transcriptional activation is a response that is common to the Interleukin-6 cytokine family (of which CT-1 is a member), which is mediated through binding and activation of a JAK/gp130 (Janus kinase/[…]) receptor complex.

| Molecule | myocyte hypertrophy (cell area) after removal of stimulus [1] | cardiomyocyte cell size after 2 days of stimulation compared to control [1] | VEGF expression (immunofluorescence) [2] | L:W ratio, in words [3] | cell areas increases ([3]; hCT1 0.5 nM) [%] | STAT3 activation [4] | L:W ratio population frequency after removing stimulation ([1]; 4 days after removal) | proportion of cardiomyocytes with L:W ratio of 1.0 to 2.0 ([1]; upon treatment (2 days), control ~60%) [%] | L:W ratio (length to width ratio) ([3]; hCT1 0.5 nM) [%] |
| --- | --- | --- | --- | --- | --- | --- | --- | --- | --- |
| CNC[C@H](O)c1cccc(O)c1 [PE, Phenylephrine] | remained hypertrophied | increase in cardiomyocyte cell size | less VEGF expression | same or shortened L:W ratio | 171 | only minimal (if any) activation |  |  |  |
| hCT1: Recombinant human CT1 protein; 201 amino acid sequence, GenBank Accession Nos AAD12173 and AAA85229 (human) (protein, UniProt Q16619 1-201, looked up) Cardiotrophin-1: MSRREGSLEDPQTDSSVSLLPHLEAKIRQTHSLAHLLTKYAEQLLQEYVQLQGDPFGLPSFSPPRLPVAGLSAPAPSHAGLPVHERLRLDAAALAALPPLLDAVCRRQAELNPRAPRLLRRLEDAARQARALGAAVEALLAALGAANRGPRAEPPAATASAASATGVFPAKVLGLRVCGLYREWLSRTEGDLGQLLPGGSA | reversion of the myocyte hypertrophy | increase in cardiomyocyte cell size | rapid increase in the expression of VEGF |  | 162 | significant STAT3 activation | reversion of L:W ratio occurs | ~20 | 172 |

From patent US9962427B2, “Treatment of right ventricular dysfunction due to pressure overload” (OTTAWA HOSPITAL RESEARCH INSTITUTE, priority 2016, dated 2018)
